# Reference: the Human Domainome abundance scans (Beltran et al. 2025)
# ± gives the uncertainty stated by the source.
# B1: Formin-binding protein 4, residues 200 to 261; numbered along this chain, Q8N3X1 (parent)
# chain: SGWQYDTQCSLAGVGIEMGDWQEVWDENTGCYYYWNTQTNEVTWELPQYLATQVQGLQHYQP
# Variants of: B1
# Experiment: abundance fitness (aPCA) (normalised: wild type 0, dead -1); higher = more abundant; growth selection in yeast, the domain comes from the species named
# Settings: Homo sapiens
row,Variant,abundance fitness
1,SGWQYDTQCSLAGVGIEMGDWQEVWDENTGCYYYWNTQTNEVTWELPQYLATQVQGQQHYQP [L57Q],0.047 ± 0.078
2,SGWQYDTQCSLAGVGIEMGDWQEVWDENTGCYYYWNTQTNEVTWELPQYLATQVQGGQHYQP [L57G],-0.15 ± 0.061
3,SGWQYDTQCSLAGVGIEMGDWQEVWDENTGCYYYWNTQTNEVTWELPQYLATQVQGMQHYQP [L57M],-0.159 ± 0.086
4,SGWQYDTQCSLAGVGIEMGDWQEVWDENTGCYYYWNTQTNEVTWELPQYLATQVQGPQHYQP [L57P],-0.075 ± 0.086
5,SGWQYDTQCSLAGVGIEMGDWQEVWDENTGCYYYWNTQTNEVTWELPQYLATQVQGCQHYQP [L57C],-0.305 ± 0.12
6,SGWQYDTQCSLAGVGIEMGDWQEVWDENTGCYYYWNTQTNEVTWELPQYLATQVQGNQHYQP [L57N],-0.212 ± 0.1
7,SGWQYDTQCSLAGVGIEMGDWQEVWDENTGCYYYWNTQTNEVTWELPQYLATQVQGSQHYQP [L57S],-0.084 ± 0.073
8,SGWQYDTQCSLAGVGIEMGDWQEVWDENTGCYYYWNTQTNEVTWELPQYLATQVQGWQHYQP [L57W],-0.349 ± 0.078
9,SGWQYDTQCSLAGVGIEMGDWQEVWDENTGCYYYWNTQTNEVTWELPQYLATQVQGKQHYQP [L57K],0.312 ± 0.083
10,SGWQYDTQCSLAGVGIEMGDWQEVWDENTGCYYYWNTQTNEVTWELPQYLATQVQGRQHYQP [L57R],-0.029 ± 0.056
11,SGWQYDTQCSLAGVGIEMGDWQEVWDENTGCYYYWNTQTNEVTWELPQYLATQVQGVQHYQP [L57V],-0.047 ± 0.063
12,SGWQYDTQCSLAGVGIEMGDWQEVWDENTGCYYYWNTQTNEVTWELPQYLATQVQGHQHYQP [L57H],-0.084 ± 0.1
13,SGWQYDTQCSLAGVGIEMGDWQEVWDENTGCYYYWNTQTNEVTWELPQYLATQVQGYQHYQP [L57Y],-0.315 ± 0.13
14,SGWQYDTQCSLAGVGIEMGDWQEVWDENTGCYYYWNTQTNEVTWELPQYLATQVQGDQHYQP [L57D],-0.043 ± 0.12
15,SGWQYDTQCSLAGVGIEMGDWQEVWDENTGCYYYWNTQTNEVTWELPQYLATQVQGEQHYQP [L57E],-0.093 ± 0.087
16,SGWQYDTQCSLAGVGIEMGDWQEVWDENTGCYYYWNTQTNEVTWELPQYLATQVQGFQHYQP [L57F],0.02 ± 0.1
17,SGWQYDTQCSLAGVGIEMGDWQEVWDENTGCYYYWNTQTNEVTWELPQYLATQVQGIQHYQP [L57I],-0.136 ± 0.12
18,SGWQYDTQCSLAGVGIEMGDWQEVWDENTGCYYYWNTQTNEVTWELPQYLATQVQGLQTYQP [H59T],0.147 ± 0.07
19,SGWQYDTQCSLAGVGIEMGDWQEVWDENTGCYYYWNTQTNEVTWELPQYLATQVQGLQQYQP [H59Q],0.083 ± 0.084
20,SGWQYDTQCSLAGVGIEMGDWQEVWDENTGCYYYWNTQTNEVTWELPQYLATQVQGLQFYQP [H59F],-0.062 ± 0.084
21,SGWQYDTQCSLAGVGIEMGDWQEVWDENTGCYYYWNTQTNEVTWELPQYLATQVQGLQGYQP [H59G],-0.017 ± 0.076
22,SGWQYDTQCSLAGVGIEMGDWQEVWDENTGCYYYWNTQTNEVTWELPQYLATQVQGLQLYQP [H59L],-0.083 ± 0.052

row,Variant,abundance fitness
1,SGWQYDTQCSLAGVGIEMGDWQEVWDENTGCYYYWNTQTNEVTWELPQYLATQVQGLQPYQP [H59P],-0.115 ± 0.077
2,SGWQYDTQCSLAGVGIEMGDWQEVWDENTGCYYYWNTQTNEVTWELPQYLATQVQGLQAYQP [H59A],0.008 ± 0.073
3,SGWQYDTQCSLAGVGIEMGDWQEVWDENTGCYYYWNTQTNEVTWELPQYLATQVQGLQSYQP [H59S],-0.029 ± 0.06
4,SGWQYDTQCSLAGVGIEMGDWQEVWDENTGCYYYWNTQTNEVTWELPQYLATQVQGLQKYQP [H59K],0.188 ± 0.078
5,SGWQYDTQCSLAGVGIEMGDWQEVWDENTGCYYYWNTQTNEVTWELPQYLATQVQGLQMYQP [H59M],0.082 ± 0.067
6,SGWQYDTQCSLAGVGIEMGDWQEVWDENTGCYYYWNTQTNEVTWELPQYLATQVQGLQYYQP [H59Y],-0.296 ± 0.08
7,SGWQYDTQCSLAGVGIEMGDWQEVWDENTGCYYYWNTQTNEVTWELPQYLATQVQGLQRYQP [H59R],-0.125 ± 0.062
8,SGWQYDTQCSLAGVGIEMGDWQEVWDENTGCYYYWNTQTNEVTWELPQYLATQVQGLQEYQP [H59E],0.137 ± 0.079
9,SGWQYDTQCSLAGVGIEMGDWQEVWDENTGCYYYWNTQTNEVTWELPQYLATQVQGLQNYQP [H59N],0.033 ± 0.12
10,SGWQYDTQCSLAGVGIEMGDWQEVWDENTGCYYYWNTQTNEVTWELPQYLATQVQGLQIYQP [H59I],0.045 ± 0.097
11,SGWQYDTQCSLAGVGIEMGDWQEVWDENTGCYYYWNTQTNEVTWELPQYLATQVQGLQHYNP [Q61N],-0.108 ± 0.15
12,SGWQYDTQCSLAGVGIEMGDWQEVWDENTGCYYYWNTQTNEVTWELPQYLATQVQGLQHYSP [Q61S],-0.083 ± 0.069
13,SGWQYDTQCSLAGVGIEMGDWQEVWDENTGCYYYWNTQTNEVTWELPQYLATQVQGLQHYKP [Q61K],-0.046 ± 0.093
14,SGWQYDTQCSLAGVGIEMGDWQEVWDENTGCYYYWNTQTNEVTWELPQYLATQVQGLQHYRP [Q61R],-0.101 ± 0.065
15,SGWQYDTQCSLAGVGIEMGDWQEVWDENTGCYYYWNTQTNEVTWELPQYLATQVQGLQHYEP [Q61E],0.065 ± 0.08
16,SGWQYDTQCSLAGVGIEMGDWQEVWDENTGCYYYWNTQTNEVTWELPQYLATQVQGLQHYWP [Q61W],-0.423 ± 0.1
17,SGWQYDTQCSLAGVGIEMGDWQEVWDENTGCYYYWNTQTNEVTWELPQYLATQVQGLQHYLP [Q61L],-0.132 ± 0.054
18,SGWQYDTQCSLAGVGIEMGDWQEVWDENTGCYYYWNTQTNEVTWELPQYLATQVQGLQHYMP [Q61M],-0.16 ± 0.093
19,SGWQYDTQCSLAGVGIEMGDWQEVWDENTGCYYYWNTQTNEVTWELPQYLATQVQGLQHYHP [Q61H],-0.266 ± 0.12
20,SGWQYDTQCSLAGVGIEMGDWQEVWDENTGCYYYWNTQTNEVTWELPQYLATQVQGLQHYYP [Q61Y],-0.287 ± 0.14
21,SGWQYDTQCSLAGVGIEMGDWQEVWDENTGCYYYWNTQTNEVTWELPQYLATQVQGLQHYDP [Q61D],-0.034 ± 0.1
